Data: the supplement of paper PMC12764529
± gives the half width of the 95% confidence interval.

Assay: folding stability dG unfold (combined trypsin and chymotrypsin); higher = more stable
Method in brief: (§1)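 Bayesian fitting of sequencing counts gave K50 for each design. Unfolding free energy followed by setting this against a sequence-predicted unfolded-state K50 and a shared folded-state K50, either per protease or with trypsin and chymotrypsin combined. The designs, under 80 residues and lacking cysteine, were digested in a PA-tagged cDNA display format at 11 threefold-diluted protease concentrations and without protease, and only those with AlphaFold2 dimer inter-PAE above 15 were kept.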

Point of comparison: “SAGGSAGGSAKKKKKKFKIVKIEIEVEVVKDKKTNKYYVKVKIKIYLKGNKKEFEMEFVFPSAGGSAGGSAG [r3_424_TrROS_Hall]”, “folding stability dG unfold” value 3.37 ± 0.59 kcal/mol. Against it:
- SAGITIRLPGAEIEVQRYPHPGNGMPMYRVTVELENPEGKKPKVDVIFPPNQPPGQVENVARYIAKELKSAG [r5_704_TrROS] — lower, 0.472 ± 0.16 kcal/mol
- SAGGSAGGSMDLKDIKILEAYDPGGPVVVTFLNEGKPYTVTIPPENAQILLDLLKEGNIEIKPSAGGSAGGS [r12_604_TrMRF] — lower, 1.25 ± 0.054 kcal/mol
- SMYTTVTVEVDITLADKTPDGTWTPVGTFPIKVTVTVPESRPEEAREEALARARAEVEAFAASRGLTVVVSA [r9_356_JUSTAS] — lower, 2.07 ± 0.079 kcal/mol
- SAGGSAGGSAGDFELDFEWHRTNDHVVLSNKARDPDNGKPLYISIIFDPDPGKLDISIMPSAGGSAGGSAGG [r17_242_TrROS] — lower, 0.0261 ± 0.083 kcal/mol
- KKVKIEIEVEKVEDGYYVVRIKVKFEETEETIELELVFPKSLEEVLEKIKELLPEGQITEVEIEVYPLPEPS [r1_399_TrROS_Hall] — within error, 3.72 ± 0.67 kcal/mol
- SAGMAVVKITLEYEDGRKEEFILFVESENPEEVLEEAEEALAELIEELDVPLKSATIEIYDIPPDEELSAGG [r19_335_TrMRF] — within error, 3 ± 0.1 kcal/mol
- SAGMVTTTTVTFPNGATMTVTTHSSGIITIEATSEEDARAFLEAQGLPLTSREVLPDGTYRFTAVVPPSAGG [r19_257_JUSTAS] — higher, 4.52 ± 0.062 kcal/mol
- SAGGSAGGSAGGFIPEDGHPDETVQLTTSLTLTTSYTLPNGETVTETHTVPVLFTYKVPSAGGSAGGSAGGS [r10_1135_TrMRF] — lower, 0.797 ± 0.054 kcal/mol
- SAGGSAGGSASSVVTPISHPDGRTGTKVTLPNGTVIEFIFYPDGTIIEINHSNNTTTVTPLVSAGGSAGGSA [r18_285_JUSTAS] — lower, 1.53 ± 0.031 kcal/mol
- SAGGSAGGSAGGTGPDTPVTIETTVESVVYEGPEVKVVETFEKKITVTIPPTANPEKVSLSAGGSAGGSAGG [r7_591_JUSTAS] — lower, < -1 kcal/mol
- SAGGKIKVTVEKEENGTYRVTVEITLPDGKKITITVTVPPGVKTEEEAKKLAEEKVKELLKKLGIKPSAGGS [r8_464_TrROS_Hall] — within error, 4.11 ± 0.16 kcal/mol
- SAGGSAGGMILLETEEGEPKAVILFELRDPLFGGEIPLEFLEELAEEIKEKFPEIKHIELIGLPSAGGSAGG [r6_793_TrMRF] — lower, 1.31 ± 0.08 kcal/mol
- SGEPVIVKITFPDGTVLEIEFEGTPEEVKEAVEEEIKEYAKKHGLKPGEFKVEVIKAGDKTKETYTIKVESA [r9_1193_TrMRF] — lower, 1.87 ± 0.15 kcal/mol
- SAGGSAGGSAGMNKKGKYTVIEELVINPKTNYLFKKKVTIYPDGKIEVKSELLGPILPTESAGGSAGGSAGG [r11_226_TrMRF] — lower, 1.03 ± 0.06 kcal/mol
- SAGGTMTIEAWVKYKDMTPEEMREQAKEIAENIMNMMRQRGFPIKKIEVDVEQDPGNGWVQVTIEIEFSAGG [r13_212_TrROS] — higher, 4.24 ± 0.18 kcal/mol
- SKKVKEITIEGAPPGAKVTITVEEKGDKLIVRVEVERNGKTETFEVEMTLDELKALLDAGYTIRITEVIPSA [r9_1021_TrROS_Hall] — lower, 1.99 ± 0.35 kcal/mol

Assay: folding stability dG unfold from chymotrypsin proteolysis; higher = more stable
Method in brief: as §1

Point of comparison: “SGEPVIVKITFPDGTVLEIEFEGTPEEVKEAVEEEIKEYAKKHGLKPGEFKVEVIKAGDKTKETYTIKVESA [r9_1193_TrMRF]”, “folding stability dG unfold” value 2.03 ± 0.071 kcal/mol. Against it:
- SAGITIRLPGAEIEVQRYPHPGNGMPMYRVTVELENPEGKKPKVDVIFPPNQPPGQVENVARYIAKELKSAG [r5_704_TrROS] — lower, -0.302 ± 0.28 kcal/mol
- SAGGSAGGSMDLKDIKILEAYDPGGPVVVTFLNEGKPYTVTIPPENAQILLDLLKEGNIEIKPSAGGSAGGS [r12_604_TrMRF] — lower, 1.54 ± 0.047 kcal/mol
- SMYTTVTVEVDITLADKTPDGTWTPVGTFPIKVTVTVPESRPEEAREEALARARAEVEAFAASRGLTVVVSA [r9_356_JUSTAS] — higher, 2.21 ± 0.043 kcal/mol
- SAGGSAGGSAGDFELDFEWHRTNDHVVLSNKARDPDNGKPLYISIIFDPDPGKLDISIMPSAGGSAGGSAGG [r17_242_TrROS] — lower, -0.858 ± 0.59 kcal/mol
- KKVKIEIEVEKVEDGYYVVRIKVKFEETEETIELELVFPKSLEEVLEKIKELLPEGQITEVEIEVYPLPEPS [r1_399_TrROS_Hall] — higher, 3.13 ± 0.25 kcal/mol
- SAGMAVVKITLEYEDGRKEEFILFVESENPEEVLEEAEEALAELIEELDVPLKSATIEIYDIPPDEELSAGG [r19_335_TrMRF] — higher, 3.39 ± 0.09 kcal/mol
- SAGMVTTTTVTFPNGATMTVTTHSSGIITIEATSEEDARAFLEAQGLPLTSREVLPDGTYRFTAVVPPSAGG [r19_257_JUSTAS] — higher, 4.53 ± 0.057 kcal/mol
- SAGGSAGGSAGGFIPEDGHPDETVQLTTSLTLTTSYTLPNGETVTETHTVPVLFTYKVPSAGGSAGGSAGGS [r10_1135_TrMRF] — lower, 1.02 ± 0.071 kcal/mol
- SAGGSAGGSASSVVTPISHPDGRTGTKVTLPNGTVIEFIFYPDGTIIEINHSNNTTTVTPLVSAGGSAGGSA [r18_285_JUSTAS] — lower, 1.55 ± 0.017 kcal/mol
- SAGGSAGGSAGGTGPDTPVTIETTVESVVYEGPEVKVVETFEKKITVTIPPTANPEKVSLSAGGSAGGSAGG [r7_591_JUSTAS] — lower, -1.06 ± 0.31 kcal/mol
- SAGGKIKVTVEKEENGTYRVTVEITLPDGKKITITVTVPPGVKTEEEAKKLAEEKVKELLKKLGIKPSAGGS [r8_464_TrROS_Hall] — higher, 4.27 ± 0.14 kcal/mol
- SAGGSAGGMILLETEEGEPKAVILFELRDPLFGGEIPLEFLEELAEEIKEKFPEIKHIELIGLPSAGGSAGG [r6_793_TrMRF] — lower, 1.1 ± 0.03 kcal/mol
- SAGGSAGGSAKKKKKKFKIVKIEIEVEVVKDKKTNKYYVKVKIKIYLKGNKKEFEMEFVFPSAGGSAGGSAG [r3_424_TrROS_Hall] — higher, 4.07 ± 0.24 kcal/mol
- SAGGSAGGSAGMNKKGKYTVIEELVINPKTNYLFKKKVTIYPDGKIEVKSELLGPILPTESAGGSAGGSAGG [r11_226_TrMRF] — lower, 1.4 ± 0.067 kcal/mol
- SAGGTMTIEAWVKYKDMTPEEMREQAKEIAENIMNMMRQRGFPIKKIEVDVEQDPGNGWVQVTIEIEFSAGG [r13_212_TrROS] — higher, 4.62 ± 0.13 kcal/mol
- SKKVKEITIEGAPPGAKVTITVEEKGDKLIVRVEVERNGKTETFEVEMTLDELKALLDAGYTIRITEVIPSA [r9_1021_TrROS_Hall] — within error, 2.12 ± 0.086 kcal/mol

Assay: folding stability dG unfold from trypsin proteolysis; higher = more stable
Method in brief: as §1

Point of comparison: “SAGMAVVKITLEYEDGRKEEFILFVESENPEEVLEEAEEALAELIEELDVPLKSATIEIYDIPPDEELSAGG [r19_335_TrMRF]”, “folding stability dG unfold” value 2.12 ± 0.11 kcal/mol. Against it:
- SAGITIRLPGAEIEVQRYPHPGNGMPMYRVTVELENPEGKKPKVDVIFPPNQPPGQVENVARYIAKELKSAG [r5_704_TrROS] — lower, 0.858 ± 0.13 kcal/mol
- SAGGSAGGSMDLKDIKILEAYDPGGPVVVTFLNEGKPYTVTIPPENAQILLDLLKEGNIEIKPSAGGSAGGS [r12_604_TrMRF] — lower, 0.773 ± 0.032 kcal/mol
- SMYTTVTVEVDITLADKTPDGTWTPVGTFPIKVTVTVPESRPEEAREEALARARAEVEAFAASRGLTVVVSA [r9_356_JUSTAS] — lower, 1.76 ± 0.043 kcal/mol
- SAGGSAGGSAGDFELDFEWHRTNDHVVLSNKARDPDNGKPLYISIIFDPDPGKLDISIMPSAGGSAGGSAGG [r17_242_TrROS] — lower, 0.396 ± 0.036 kcal/mol
- KKVKIEIEVEKVEDGYYVVRIKVKFEETEETIELELVFPKSLEEVLEKIKELLPEGQITEVEIEVYPLPEPS [r1_399_TrROS_Hall] — higher, 3.89 ± 0.23 kcal/mol
- SAGMVTTTTVTFPNGATMTVTTHSSGIITIEATSEEDARAFLEAQGLPLTSREVLPDGTYRFTAVVPPSAGG [r19_257_JUSTAS] — higher, 4.61 ± 0.13 kcal/mol
- SAGGSAGGSAGGFIPEDGHPDETVQLTTSLTLTTSYTLPNGETVTETHTVPVLFTYKVPSAGGSAGGSAGGS [r10_1135_TrMRF] — lower, 0.433 ± 0.02 kcal/mol
- SAGGSAGGSASSVVTPISHPDGRTGTKVTLPNGTVIEFIFYPDGTIIEINHSNNTTTVTPLVSAGGSAGGSA [r18_285_JUSTAS] — lower, 1.44 ± 0.04 kcal/mol
- SAGGSAGGSAGGTGPDTPVTIETTVESVVYEGPEVKVVETFEKKITVTIPPTANPEKVSLSAGGSAGGSAGG [r7_591_JUSTAS] — lower, -0.81 ± 0.43 kcal/mol
- SAGGKIKVTVEKEENGTYRVTVEITLPDGKKITITVTVPPGVKTEEEAKKLAEEKVKELLKKLGIKPSAGGS [r8_464_TrROS_Hall] — higher, 3.72 ± 0.15 kcal/mol
- SAGGSAGGMILLETEEGEPKAVILFELRDPLFGGEIPLEFLEELAEEIKEKFPEIKHIELIGLPSAGGSAGG [r6_793_TrMRF] — lower, 1.47 ± 0.047 kcal/mol
- SAGGSAGGSAKKKKKKFKIVKIEIEVEVVKDKKTNKYYVKVKIKIYLKGNKKEFEMEFVFPSAGGSAGGSAG [r3_424_TrROS_Hall] — within error, 2.29 ± 0.24 kcal/mol
- SGEPVIVKITFPDGTVLEIEFEGTPEEVKEAVEEEIKEYAKKHGLKPGEFKVEVIKAGDKTKETYTIKVESA [r9_1193_TrMRF] — lower, 1.5 ± 0.098 kcal/mol
- SAGGSAGGSAGMNKKGKYTVIEELVINPKTNYLFKKKVTIYPDGKIEVKSELLGPILPTESAGGSAGGSAGG [r11_226_TrMRF] — lower, 0.336 ± 0.051 kcal/mol
- SAGGTMTIEAWVKYKDMTPEEMREQAKEIAENIMNMMRQRGFPIKKIEVDVEQDPGNGWVQVTIEIEFSAGG [r13_212_TrROS] — higher, 3.45 ± 0.15 kcal/mol
- SKKVKEITIEGAPPGAKVTITVEEKGDKLIVRVEVERNGKTETFEVEMTLDELKALLDAGYTIRITEVIPSA [r9_1021_TrROS_Hall] — within error, 2.04 ± 0.15 kcal/mol
